In the test the target is T1, human immunodeficiency virus 1 (HIV-1) (group M, subtype B, Isolate MN) gp120 Protein (HIV-1 (group M, subtype B, isolate MN), UniProt P05877 30-513).
T1 construct: also called gp120 core; His-tagged gp120; source: bought: Sino Biological (Catalog No: 40405-V08H)
Description: ELISA; plates coated with human TNFR1 or TNFR2 (5 µg/mL, carbonate buffer pH 9.6, overnight 4 °C), blocked with 3% BSA; serial dilutions of gp120, 2 h room temperature; wash 20 mM Tris-HCl, 500 mM NaCl, 0.05% Tween-20, pH 7.5; bound gp120 detected with anti-His-HRP. The settings on record: both partners purified. (In an ELISA, binding on a coated surface is turned into a signal by an enzyme label.)

B1: human TNFR2 / CD120b protein, extracellular domain (residues 1-257) (domain or fragment, UniProt P20333-1 23-257, looked up)
chain: LPAQVAFTPYAPEPGSTCRLREYYDQTAQMCCSKCSPGQHAKVFCTKTSDTVCDSCEDSTYTQLWNWVPECLSCGSRCSSDQVETQACTREQNRICTCRPGWYCALSKQEGCRLCAPLRKCRPGFGVARPGTETSDVVCKPCAPGTFSNTTSSTDICRPHQICNVVAIPGNASMDAVCTSTSPTRSMAPGAVHLPQPVSTRSQHTQPTPEPSTAPSTSFLLPMGPSPPAEGSTGD
notes: also called tumor necrosis factor receptor type II; immobilized TNFR2; source: bought: Sino Biological (Catalog No: 10417-H08H)
On to B1, for which the binding result was “binds”.

For the origin of these results see article PMC13137973, “Tumor Necrosis Factor Receptor 2 Inhibits HIV-1 Infection by Blocking the Binding of gp120 to CD4” (International Journal of Biological Sciences, 2026).
